From PMC8646365

Target: cancer-testis antigen Ny-ESO-1 peptide on HLA-A*02:01 (human)
Assay: NFAT-luciferase, TCR-KO CD8+ Jurkat

1G4_a95LY TCR was tested, and the EC50 of peptide was 50 pM.
